# Numbering of substitutions follows the chain as printed. Names may count otherwise.
# B1: CE115HA000 N53G one-arm antibody (antibody, human IgG1, kappa, L234A L235A, N297A, name in Kabat numbering)
# heavy: QVQLVESGGGVVQPGRSLRLSCAASGFTFSNAWMHWVRQAPGKGLEWVAQIKAKSGNYATYYAESVKGRFTISRDDSKNSLYLQMNSLKTEDTAVYYCRYVHYGAYYGVDAWGQGTTVTVSSASTKGPSVFPLAPSSKSTSGGTAALGCLVKDYFPEPVTVSWNSGALTSGVHTFPAVLQSSGLYSLSSVVTVPSSSLGTQTYICNVNHKPSNTKVDKKVEPKSCDKTHTCPPCPAPEAAGGPSVFLFPPKPKDTLMISRTPEVTCVVVDVSHEDPEVKFNWYVDGVEVHNAKTKPREEQYASTYRVVSVLTVLHQDWLNGKEYKCKVSNKALPAPIEKTISKAKGQPREPQVYTLPPSRCELTKNQVSLSCAVKGFYPSDIAVEWESNGQPENNYKTTPPVLDSDGSFFLVSKLTVDKSRWQQGNVFSCSVMHEALHNHYTQKSLSLSPDYKDDDDK
# chain: EPKSSDKTHTCPPCPAPELLGGPSVFLFPPKPKDTLMISRTPEVTCVVVDVSHEDPEVKFNWYVDGVEVHNAKTKPREEQYNSTYRVVSVLTVLHQDWLNGKEYKCKVSNKALPAPIEKTISKAKGQPREPQVCTLPPSRDELTKNQVSLWCLVKGFYPSDIAVEWESNGQPENNYKTTPPVLDSDGSFFLYSKLTVDKSRWQQGNVFSCSVMHEALHNRYTQKSLSLSP
# light: DIVMTQSPLSLPVTPGEPASISCRSSQSLVHSNRNTYLHWYQQKPGQAPRLLIYKVSNRFSGVPDRFSGSGSGTDFTLKISRVEAEDVGVYYCGQGTQVPYTFGQGTKLEIKRTVAAPSVFIFPPSDEQLKSGTASVVCLLNNFYPREAKVQWKVDNALQSGNSQESVTEQDSKDSTYSLSSTLTLSKADYEKHKVYACEVTHQGLSSPVTKSFNRGEC
# B2: CE115HA000 N54A one-arm antibody (antibody, human IgG1, kappa, L234A L235A, N297A, name in Kabat numbering)
# heavy: B1 heavy with G56N, N57A
# chain: B1 chain
# light: B1 light
# B3: CE115HA000 N53I one-arm antibody (antibody, human IgG1, kappa, L234A L235A, N297A, name in Kabat numbering)
# heavy: B1 heavy with G56I
# chain: B1 chain
# light: B1 light
# B4: CE115HA000 N53S one-arm antibody (antibody, human IgG1, kappa, L234A L235A, N297A, name in Kabat numbering)
# heavy: B1 heavy with G56S
# chain: B1 chain
# light: B1 light
# B5: CE115HA000 N54D one-arm antibody (antibody, human IgG1, kappa, L234A L235A, N297A, name in Kabat numbering)
# heavy: B1 heavy with G56N, N57D
# chain: B1 chain
# light: B1 light
# B6: CE115HA000 N53H one-arm antibody (antibody, human IgG1, kappa, L234A L235A, N297A, name in Kabat numbering)
# heavy: B1 heavy with G56H
# chain: B1 chain
# light: B1 light
# B7: CE115HA000 N53K one-arm antibody (antibody, human IgG1, kappa, L234A L235A, N297A, name in Kabat numbering)
# heavy: B1 heavy with G56K
# chain: B1 chain
# light: B1 light
# B8: CE115HA000 N53Q one-arm antibody (antibody, human IgG1, kappa, L234A L235A, N297A, name in Kabat numbering)
# heavy: B1 heavy with G56Q
# chain: B1 chain
# light: B1 light
# B9: CE115HA000 N53W one-arm antibody (antibody, human IgG1, kappa, L234A L235A, N297A, name in Kabat numbering)
# heavy: B1 heavy with G56W
# chain: B1 chain
# light: B1 light
# B10: CE115HA000 N53Y one-arm antibody (antibody, human IgG1, kappa, L234A L235A, N297A, name in Kabat numbering)
# heavy: B1 heavy with G56Y
# chain: B1 chain
# light: B1 light
# Target: T1, CD3ε homodimer protein (human, UniProt P07766 23-126, limits assumed, sulfo-tag or biotin label in the ECL assays; amine-coupled to the chip in SPR)
# T1 construct: also called human CD3ε homodimer protein; CD3 (CD3ε)
# T1 sequence (P07766 23-126 limits assumed): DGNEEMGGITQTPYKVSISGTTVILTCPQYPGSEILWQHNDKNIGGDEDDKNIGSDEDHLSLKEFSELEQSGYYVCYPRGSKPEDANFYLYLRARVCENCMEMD
# Experiment: SPR Biacore T200; CD3ε homodimer on CM4 chip;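 further: Single-residue variant antibodies injected as analyte over CD3ε homodimer immobilized by amine coupling, run at 25 °C in HBS-EP+ buffer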
row,ratio of amounts bound Z=Y/X (altered form / CE115HA000),Binder
1,0.5,B1
2,0.86,B2
3,0.68,B3
4,0.83,B4
5,0.62,B5
6,0.76,B6
7,0.78,B7
8,1.1,B8
9,0.88,B9
10,0.63,B10
